Measurements reported in paper PMC4701441, “Directed Evolution of a Highly Specific FN3 Monobody to the SH3 Domain of Human Lyn Tyrosine Kinase” (PLoS ONE, 2016).

Biological target: T1, GST-Lyn SH3 domain (human, UniProt P07948 63-123)
T1 construct: SH3 domain of human Lyn tyrosine kinase; Plasmid derived from pGEX-2T; also called GST fusion to the SH3 domain of Lyn
Test: ELISA; competition ELBA: GST-Lyn SH3 domain coated at 5 μg/mL, peptide at 0.1 μM to 40 μM added along with TA8-alkaline phosphatase fusion for 1 h
Conditions: both partners purified

T1 sequence (P07948 63-123): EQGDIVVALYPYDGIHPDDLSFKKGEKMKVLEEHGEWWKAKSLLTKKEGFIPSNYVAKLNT

GMPTPPLPPRPANLGERQA
binding result: binds
